Test results: patent US20170188835

Molecular target: iTEV(+) 3.0, infrared fluorescent Tobacco Etch Virus (TEV) protease sensor

B1: Tobacco Etch Virus (TEV) protease (protein)
chain: GESLFKGPRDYNPISSTICHLTNESDGHTTSLYGIGFGPFIITNKHLFRRNNGTLLVQSLHGVFKVKNTTTLQQHLIDGRDMIIIRMPKDFPPFPQKLKFREPQREERICLVTTNFQTKSMSSMVSDTSCTFPSSDGIFWKHWIQTKDGQCGSPLVSTRDGFIVGIHSASNFTNTNNYFTSVPKNFMELLTNQEAQQWVSGWRLNADSVLWGGHKVFMSKPEEPFQPVKEATQLMNELVYSQ
gel electrophoresis with Coomassie blue staining (cleavage of the sensor): Two bands revealed by Coomassie blue staining correspond to N and C half of the sensor with the expected molecular weight
